Measured values as given in PMC11797554, “Chemical genetics reveals cross-regulation of plant developmental signaling by the immune peptide-receptor pathway” (Science Advances, 2024).

Legend:
[1] = target: SCRM KiDoK peptide (Arabidopsis); test: BLI; biotinylated SCRM KiDoK peptide (500 nM) loaded on streptavidin probes; MPK6 as analyte at 150-4.68 nM; without kC9; Octet Red96, 25°C; 1x PBS, 2% DMSO, 0.02 Tween 20, 0.1% BSA; 1:1 model, Kd from kobs with steady-state analysis
[2] = target: SCRM KiDoK peptide (Arabidopsis); test: BLI; as a1 but analyte MPK6 preincubated with the small molecule kC9 (MPK6:kC9 1:1.5), 150-4.68 nM; biotinylated SCRM KiDoK peptide on streptavidin probes; 25°C; 1x PBS, 2% DMSO, 0.02 Tween 20, 0.1% BSA
[3] = target: MPK6ΔNt (29 to 305) (Arabidopsis) (UniProt Q39026); test: ITC; SCRM KiDoK peptide to MPK6ΔNt (29 to 305), without kC9; 25°C, Malvern PEAQ-ITC; PBS pH 7.4 with 2% DMSO
[4] = target: MPK6ΔNt (29 to 305) (Arabidopsis) (UniProt Q39026); test: ITC; SCRM KiDoK peptide to MPK6ΔNt (29 to 305) preincubated with the small molecule kC9; 25°C, Malvern PEAQ-ITC; PBS pH 7.4 with 2% DMSO

“MPK6ΔNt (29 to 305) (from UniProt Q39026 29-305) (domain or fragment)” was tested, and the Kd [1] was 40.1 nM and the Kd [2] was 856 nM.

SCRM KiDoK peptide showed a Kd [3] of 43.4 nM and a Kd [4] of 1400 nM.
